# Source: IntAct's records for PubMed 17948050
# B1: Mucosa-associated lymphoid tissue lymphoma translocation protein 1 (Homo sapiens), Q9UDY8 (parent)
# chain: MSLLGDPLQALPPSAAPTGPLLAPPAGATLNRLREPLLRRLSELLDQAPEGRGWRRLAELAGSRGRLRLSCLDLEQCSLKVLEPEGSPSLCLLKLMGEKGCTVTELSDFLQAMEHTEVLQLLSPPGIKITVNPESKAVLAGQFVKLCCRATGHPFVQYQWFKMNKEIPNGNTSELIFNAVHVKDAGFYVCRVNNNFTFEFSQWSQLDVCDIPESFQRSVDGVSESKLQICVEPTSQKLMPGSTLVLQCVAVGSPIPHYQWFKNELPLTHETKKLYMVPYVDLEHQGTYWCHVYNDRDSQDSKKVEIIIGRTDEAVECTEDELNNLGHPDNKEQTTDQPLAKDKVALLIGNMNYREHPKLKAPLVDVYELTNLLRQLDFKVVSLLDLTEYEMRNAVDEFLLLLDKGVYGLLYYAGHGYENFGNSFMVPVDAPNPYRSENCLCVQNILKLMQEKETGLNVFLLDMCRKRNDYDDTIPILDALKVTANIVFGYATCQGAEAFEIQHSGLANGIFMKFLKDRLLEDKKITVLLDEVAEDMGKCHLTKGKQALEIRSSLSEKRALTDPIQGTEYSAESLVRNLQWAKAHELPESMCLKFDCGVQIQLGFAAEFSNVMIIYTSIVYKPPEIIMCDAYVTDFPLDLDIDPKDANKGTPEETGSYLVSKDLPKHCLYTRLSSLQKLKEHLVFTVCLSYQYSGLEDTVEDKQEVNVGKPLIAKLDMHRGLGRKTCFQTCLMSNGPYQSSAATSGGAGHYHSLQDPFHGVYHSHPGNPSNVTPADSCHCSRTPDAFISSFAHHASCHFSRSNVPVETTDEIPFSFSDRLRISEK
# Variants of: B1
# Settings: with ubc_human UBC
row,effect of a mutation on the interaction,Variant
1,disrupting interaction,K644R;K648R;K661R;K665R;K677R;K679R;K702R;K709R;K714R;K724R;K824R
